Consider one molecule from article PMC5809584, “Plastic roles of phenylalanine and tyrosine residues of TLS/FUS in complex formation with the G-quadruplexes of telomeric DNA and TERRA”.

The data set deals with RGG3 of TLS/FUS (UniProt P35637 454-526). Briefly: NMR CSP; equivalent amount, 50 mM KCl; NMR: 20 mM K-phosphate pH 6.2, 50 mM KCl, 1 mM DTT, 0.1 mM DSS, 5% D2O, 298 K; FA: 20 C (nucleic acids annealed in 20 mM K-phosphate pH 6.2, 50 mM KCl); EMSA: 50 mM Tris-HCl pH 7.5, 100 mM KCl, 0.5 mM EDTA, 0.5 mM DTT, 0.2 mg/mL BSA, 1 ug/mL calf thymus DNA, 20 C. Particulars: protein: recombinant; tags: GST removed with PreScission; residual GST-vector residues at N-terminus; G4, heterogeneous. A general note: Mobility shift assays separate free from complexed probe on a gel.
RGG3 of TLS/FUS, sequence (P35637 454-526): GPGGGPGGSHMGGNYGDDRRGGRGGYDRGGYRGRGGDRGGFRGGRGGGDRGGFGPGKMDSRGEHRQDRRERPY

For UUAGGGUUAGGGUUAGGGUUAGGG (structured_RNA) [TERRA24], the binding result is recorded as “binds”.
